Source: patent publication US12297272B2, “IgG Fc variants for veterinary use” (Elanco US Inc., priority 2017, dated 2025)
Residue numbers refer to the chain shown, from its start.

B1: equine IgG6 Fc: wild-type equine IgG6 Fc polypeptide (protein)
chain: GRPSVFIFPPNPKDTLMISRTPEVTCVVVDVSQENPDVKFNWYVDGVEAHTATTKAKEKQDNSTYRVVSVLPIQHQDWRRGKEFKCKVNNRALPAPVERTITKAKGELQDPQVYILAPHPDEVTKNTVSVTCLVKDFYPPDINVEWQSNEEPEPEVKYSTTPAQLDGDGSYFLYSKLTVETDRWEQGESFTCVVMHEAIRHTYRQKSITNFPGK
modifications: Wild-type equine IgG6 Fc, Protein A -, C1q -
notes: wild-type equine IgG6 Fc polypeptide
B2: equine IgG5 Fc: wild-type equine IgG5 Fc polypeptide (protein)
chain: GGPSVFIFPPKPKDVLMISRKPEVTCVVVDLGHDDPDVQFTWFVDGVETHTATTEPKEEQFNSTYRVVSVLPIQHQDWLSGKEFKCSVTSKALPAPVERTISKAKGQLRVPQVYVLAPHPDELAKNTVSVTCLVKDFYPPEIDVEWQSNEHPEPEGKYSTTPAQLNSDGSYFLYSKLSVETSRWKQGESFTCGVMHEAVENHYTQKNVSHSPGK
modifications: Wild-type equine IgG5 Fc, Protein A -, C1q -
notes: wild-type equine IgG5 Fc polypeptide
B3: feline IgG2 Fc: wild-type feline IgG2 Fc polypeptide (protein)
chain: PKTASTIESKTGEGPKCPVPEIPGAPSVFIFPPKPKDTLSISRTPEVTCLVVDLGPDDSNVQITWFVDNTEMHTAKTRPREEQFNSTYRVVSVLPILHQDWLKGKEFKCKVNSKSLPSAMERTISKAKGQPHEPQVYVLPPTQEELSENKVSVTCLIKGFHPPDIAVEWEITGQPEPENNYQTTPPQLDSDGTYFLYSRLSVDRSHWQRGNTYTCSVSHEALHSHHTQKSLTQSPGK
modifications: Wild-type feline IgG2 Fc, Protein A +, C1q -
notes: wild-type feline IgG2 Fc polypeptide
B4: equine IgG2 Fc: wild-type equine IgG2 Fc polypeptide (protein)
chain 1: DMSKCPKCPAPELLGGPSVFIFPPNPKDALMISRTPVVTCVVVNLSDQYPDVQFSWYVDNTEVHSAITKQREAQFNSTYRVVSVLPIQHQDWLSGKEFKCSVTNVGVPQPISRAISRGKGPSRVPQVYVLPPHPDELAKSKVSVTCLVKDFYPPDISVEWQSNRWPELEGKYSTTPAQLDGDGSYFLYSKLSLETSRWQQVESFTCAVMHEALHNHFTKTDISESLGK
chain 2: GGPSVFIFPPNPKDALMISRTPVVTCVVVNLSDQYPDVQFSWYVDNTEVHSAITKQREAQFNSTYRVVSVLPIQHQDWLSGKEFKCSVTNVGVPQPISRAISRGKGPSRVPQVYVLPPHPDELAKSKVSVTCLVKDFYPPDISVEWQSNRWPELEGKYSTTPAQLDGDGSYFLYSKLSLETSRWQQVESFTCAVMHEALHNHFTKTDISESLGK
modifications: Synthetic Variant equine Fc IgG2 (with equine IgG1 hinge), Protein A - , C1q -; Wild-type equine IgG2 Fc, Protein A -, C1q -
notes: wild-type equine IgG2 Fc polypeptide
B5: GLP1-G8/GLP1-2G_III_VARfeIgG2: Formula III GLP1 contiguous polypeptide comprising variant feline IgG2 Fc of SEQ ID NO: 17 (Gly to Cys at position 14) (protein)
chain: HGEGTFTSDVSSYLEGQAAKEFIAWLVKGGGGSGGGGSGGGGSGGGGSPKTASTIESKTGECPKCPVPEIPGAPSVFIFPPKPKDTLSISRTPEVTCLVVDLGPDDSNVQITWFVDNTEMHTAKTRPREEQFNSTYRVVSVLPILHQDWLKGKEFKCKVNSKSLPSAMERTISKAKGQPHEPQVYVLPPTQEELSENKVSVTCLIKGFHPPDIAVEWEITGQPEPENNYQTTPPQLDSDGTYFLYSRLSVDRSHWQRGNTYTCSVSHEALHSHHTQKSLTQSPGKGGGGSGGGGHAEGTFTSDVSSYLEGQAAKEFIAWLVKGGG
modifications: Synthetic GLP1-G8/GLP1-2G_III_ VARfeIgG2
B6: equine IgG3 Fc: wild-type equine IgG3 Fc polypeptide (protein)
chain: GGPSVFIFPPKPKDVLMITRMPEVTCLVVDVSHDSSDVLFTWYVDGTEVKTAKTMPNEEQNNSTYRVVSVLRIQHQDWLNGKKFKCKVNNQALPAPVERTISKATGQTRVPQVYVLAPHPDELSKNKVSVTCLVKDFYPPDITVEWQSNEHPEPEGKYRTTEAQKDSDGSYFLYSKLTVEKDRWQQGTTFTCVVMHEALHNHVMQKNISKNPGK
modifications: Wild-type equine IgG3 Fc, Protein A +, C1q+
notes: wild-type equine IgG3 Fc polypeptide
B7: equine IgG1 Fc: wild-type equine IgG1 Fc polypeptide (protein)
chain: GGPSVFLFPPNPKDTLMITRTPEVTCVVVDVSQENPDVKFNWYMDGVEVRTATTRPKEEQFNSTYRVVSVLRIQHQDWLSGKEFKCKVNNQALPQPIERTITKTKGRSQEPQVYVLAPHPDESKKSKVSVTCLVKDFYPPEINIEWQSNGQPELETKYSTTQAQQDSDGSYFLYSKLSVDRNRWQQGTTFTCGVMHEALHNHYTQKNVSKNPGK
modifications: Wild-type equine IgG1 Fc , Protein A +, C1q +
notes: wild-type equine IgG1 Fc polypeptide
B8: equine IgG4 Fc: wild-type equine IgG4 Fc polypeptide (protein)
chain: VGPSVFIFPPKPKDVLMISRTPTVTCVVVDVGHDFPDVQFNWYVDGVETHTATTEPKQEQFNSTYRVVSVLPIQHKDWLSGKEFKCKVNNKALPAPVERTISAPTGQPREPQVYVLAPHRDELSKNKVSVTCLVKDFYPPDIDIEWKSNGQPEPETKYSTTPAQLDSDGSYFLYSKLTVETNRWQQGTTFTCAVMHEALHNHYTEKSVSKSPGK
modifications: Wild-type equine IgG4 Fc, Protein A +, C1q +
notes: wild-type equine IgG4 Fc polypeptide
B9: equine IgG7 Fc: wild-type equine IgG7 Fc polypeptide (protein)
chain: B8 chain with F61N, V70I, P72A, K91Q, E98Q, R99K, A103K, R120P, S167G
modifications: Wild-type equine IgG7 Fc, Protein A +, C1q +
notes: wild-type equine IgG7 Fc polypeptide
B10: feline IgG1a Fc: wild-type feline IgG1a Fc polypeptide (protein)
chain 1: RKTDHPPGPKTGEGPKCPPPEMLGGPSIFIFPPKPKDTLSISRTPEVTCLVVDLGPDDSDVQITWFVDNTQVYTAKTSPREEQFNSTYRVVSVLPILHQDWLKGKEFKCKVNSKSLPSPIERTISKAKGQPHEPQVYVLPPAQEELSENKVSVTCLIKSFHPPDIAVEWEITGQPEPENNYRTTPPQLDSDGTYFVYSKLSVDRSHWQRGNTYTCSVSHEALHSHHTQKSLTQSPGK
chain 2: B10 chain 1 with T11P, G12C, E13D, G14C
modifications: Alternative wild-type feline IgG1a Fc, Protein A +, C1q +; Wild-type feline IgG1a Fc, Protein A +, C1q +
notes: wild-type feline IgG1a Fc polypeptide
B11: feline IgG1b Fc: wild-type feline IgG1b Fc polypeptide (protein)
chain 1: B10 chain 1 with A127D, K158E, S159G, H161Y, P163S, V196L, K199R, H206R
chain 2: RKTDHPPGPKPCDCPKCPPPEMLGGPSIFIFPPKPKDTLSISRTPEVTCLVVDLGPDDSDVQITWFVDNTQVYTAKTSPREEQFNSTYRVVSVLPILHQDWLKGKEFKCKVNSKSLPSPIERTISKDKGQPHEPQVYVLPPAQEELSENKVSVTCLIEGFYPSDIAVEWEITGQPEPENNYRTTPPQLDSDGTYFLYSRLSVDRSRWQRGNTYTCSVSHEALHSHHTQKSLTQSPGK
modifications: Alternative wild-type feline IgG1b Fc, Protein A +, C1q +; Wild-type feline IgG1b Fc, Protein A +, C1q +
notes: wild-type feline IgG1b Fc polypeptide

Key:
[1] = molecular target: Protein A (Staphylococcus aureus, UniProt P38507); details: for Protein A Binding: Wild-type Equine IgG Fc
Experimental: In some embodiments, the KD of an IgG Fc polypeptide, such as a variant IgG Fc polypeptide, to Protein A or to C1q or to CD16 is measured by using biolayer interferometry assays using a biosensor, such as an Octet® System (Pall ForteBio LLC, Fremont, CA) according to the supplier's instructions. In brief, biotinylated Protein A or C1q or CD16 is bound to the sensor tip and the association of IgG Fc polypeptide is monitored for a specified time or until steady state is reached. Dissociation may be monitored for a specified time or until steady state is reached. A buffer only blank curve is subtracted to correct for any drift. The data are fit to a 2:1 binding model using ForteBio data analysis software to determine association rate constant (kon), dissociation rate constant (koff), and the Kd. The equilibrium dissociation constant (KD) is calculated as the ratio of koff/kon. The term “kon” refers to the rate constant for association of a molecule X to its partner Y and the term “koff” refers to the rate constant for dissociation of a molecule X or partner Y from the molecule X/partner Y complex.
Binding analysis may be performed using an Octet biosensor. Briefly, the target molecule (e.g., Protein A, C1q, CD16, etc.) may be biotinylated and free unreacted biotin removed (e.g., by dialysis). The biotinylated target molecule is captured on streptavidin sensor tips. Association of the target molecule with various concentrations (e.g., 10 μg/mL) of IgG Fc polypeptide is monitored for a specified time or until steady state is reached. Dissociation is monitored for a specified time or until steady state is reached. A buffer only blank curve may be subtracted to correct for any drift. The data are fit to a 1:1 binding model using ForteBio™ data analysis software to determine the kon, koff, and the Kd.

[2] = molecular target: C1q (Homo sapiens, UniProt P02745+P02746+P02747); assay: C1q binding of IgG Fc polypeptides (Octet biolayer interferometry described); for C1q binding: key: (−) denotes low or no measurable binding activity
Description: Binding analysis may be performed using an Octet biosensor.

[3] = Differential scanning fluorimetry, stability at various pH; type: physicochemical; details: n = 3, 10 μg construct
Description: Furthermore, differential scanning fluorimetry was used to assess the stability of the contiguous polypeptides at various pH, as reflected by mean melting point temperature (n=3) (Table 9, below). The increased stability of the variant feline IgG2 hinge is most evident at pH 6.

Chain of C1q (P02745 23-245): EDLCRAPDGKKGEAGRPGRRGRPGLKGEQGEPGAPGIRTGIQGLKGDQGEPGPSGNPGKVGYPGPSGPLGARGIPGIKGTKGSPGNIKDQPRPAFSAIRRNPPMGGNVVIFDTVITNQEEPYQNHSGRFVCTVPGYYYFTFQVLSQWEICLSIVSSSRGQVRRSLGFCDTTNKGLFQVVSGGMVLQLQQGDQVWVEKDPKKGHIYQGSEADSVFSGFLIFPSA
Chain of C1q (P02746 28-253): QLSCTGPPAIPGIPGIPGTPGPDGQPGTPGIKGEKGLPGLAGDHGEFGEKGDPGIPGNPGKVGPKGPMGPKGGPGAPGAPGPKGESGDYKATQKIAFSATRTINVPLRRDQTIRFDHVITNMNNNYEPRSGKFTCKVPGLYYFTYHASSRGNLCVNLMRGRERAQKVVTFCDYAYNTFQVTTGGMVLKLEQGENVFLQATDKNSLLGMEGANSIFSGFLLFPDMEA
Chain of C1q (P02747 29-245): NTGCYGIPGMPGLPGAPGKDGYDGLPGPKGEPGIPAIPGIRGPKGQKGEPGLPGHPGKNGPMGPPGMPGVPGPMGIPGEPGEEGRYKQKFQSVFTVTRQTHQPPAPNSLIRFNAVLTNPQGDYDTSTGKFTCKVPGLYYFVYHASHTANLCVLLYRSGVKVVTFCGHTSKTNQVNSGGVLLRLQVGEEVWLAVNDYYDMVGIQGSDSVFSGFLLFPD

Molecule	Protein A binding affinity [1]	binding affinity to C1q [2]	other results
B1	weak or no measurable Protein A binding affinity	weak or no measurable binding affinity to C1q	Protein A Binding [1]: −; C1q Binding ([2]; Wild-type Equine IgG Fc): −
B2	weak or no measurable Protein A binding affinity	weak or no measurable binding affinity to C1q	Protein A Binding [1]: −; C1q Binding ([2]; Wild-type Equine IgG Fc): −
B3	have Protein A binding affinity	weak or no measurable binding affinity to C1q	C1q Binding ([2]; Wild-type Feline IgG Fc): −
B4	weak or no measurable Protein A binding affinity	weak or no measurable binding affinity to C1q	Protein A Binding [1]: −; C1q Binding ([2]; Wild-type Equine IgG Fc): −
B5			Mean Melting Point Temperature (Tm) ([3]; pH 6): 56.9 °C; Mean Melting Point Temperature (Tm) ([3]; pH 7): 55 °C; Mean Melting Point Temperature (Tm) ([3]; pH 8): 52.5 °C
B6	have Protein A binding affinity	bind to C1q	
B7	have Protein A binding affinity	bind to C1q	
B8	have Protein A binding affinity	bind to C1q	
B9	have Protein A binding affinity	bind to C1q	
B10	have Protein A binding affinity	bind to C1q	
B11	have Protein A binding affinity	bind to C1q	
